Results on four molecules are retold here after US20020051988A1 (TRUSTEES OF BOSTON UNIVERSITY, published 2002).

The target in assay [1] is p75 nerve growth factor receptor (p75^NTR) overexpressed on permanently transfected NIH 3T3 fibroblasts (Homo sapiens (Human)) (UniProt P08138). Put plainly: competition with ^125I β-amyloid 1-40 on p75^NTR-NIH 3T3 cells, 2 h at 4 C, NGF 0-100 ng/ml; value at 100 ng/ml NGF.
Assay [2] has the same target. In words: cell-based or functional assay.
Assay [3] concerns the target p75 nerve growth factor receptor (p75^NTR) on cultured normal human melanocytes (human) (UniProt P08138). In words: cell-based or functional assay.
Assay [4] deals with T1, p75 nerve growth factor receptor (p75^NTR) overexpressed on permanently transfected NIH 3T3 fibroblasts (Homo sapiens (Human), UniProt P08138 29-427).
T1 construct: also called 75 kD neurotrophin receptor
T1 sequence: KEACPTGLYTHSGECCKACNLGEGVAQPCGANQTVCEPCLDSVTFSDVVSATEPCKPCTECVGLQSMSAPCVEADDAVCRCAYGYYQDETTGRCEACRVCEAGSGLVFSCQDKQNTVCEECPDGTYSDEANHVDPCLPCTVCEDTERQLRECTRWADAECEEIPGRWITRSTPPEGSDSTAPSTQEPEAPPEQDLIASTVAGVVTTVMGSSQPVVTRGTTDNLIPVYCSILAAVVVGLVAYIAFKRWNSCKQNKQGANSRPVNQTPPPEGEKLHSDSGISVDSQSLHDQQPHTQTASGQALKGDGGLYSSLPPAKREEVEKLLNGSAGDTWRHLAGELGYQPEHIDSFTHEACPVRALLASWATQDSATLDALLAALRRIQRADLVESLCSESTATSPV
In words: displacement of ^125I β-amyloid 1-40 from p75^NTR 3T3 cells, 4 h at 4 C, peptide 0-400 nM.

Where no end group is shown, it is not given here.

On to Nerve growth factor (NGF) (ligand), for which, in assay [1], the maximum % inhibition of ^125I labeled β-amyloid binding turned out to be 38%.

In the case of “β-amyloid 1-40 peptide (from UniProt P05067 1-40)”, the decrease in cell yield in assay [2] was found to be 60%. In assay [3], this molecule had a Bax induction of 3 fold, a Bax level as compared to the 40-1 peptide of 270%, a decrease in cell yield of 59% and a decrease in melanocyte yield greater than 50%.

Consider “β-amyloid 25-35 peptide (from UniProt P05067 696-706)”, for which, in assay [3], the Bax induction turned out to be 3 fold and the Bax level as compared to the 40-1 peptide stood at 160%.

B1: cyclic peptide CVGSNKGAIC (SEQ ID NO: 4) (peptide)
peptide: CVGSNKGAIC
modifications: also: cyclic peptide, ring closure not given here
notes: also called cyclic decapeptide; cold peptide
Turning to B1, the IC50 in assay [4] stood at 25 nM.

What is called IC50 is the concentration at which inhibition is half-maximal.
